# Assay results taken from patent US12644128B2, “Method for producing HSL protein having catalytic activity for 2-oxoglutaric acid-dependently oxidizing 4-HPPD inhibitor” (National Agriculture and Food Research Organization, priority 2017, dated 2026).
# Entries after “also recorded” stand apart in the source; their conditions may differ.
# B1: OsHSL1 protein: rice-derived HSL protein, typically a protein having an amino acid sequence of SEQ ID NO: 4 (protein, listed as Oryza sativa)
# chain: MADESWRTPAIVQELAAAGVEEPPSRYVLGEKDRSDELVAAELPEPIPVVDLSRLAGADEAAKLRAALQNWGFFLLTNHGVETSLMDDVLNLAREFFNQPIERKRKFSNLIDGKNFQVEGYGTDRVVTQDQILDWSDRLFLRVEPKEERNLAFWPDHPESFRDVLNEYASRTKRIRDDIVQAMSKLLGLDEDYFFDRLNKAPALARFNYYPPCPRPDLVFGVRPHSDGSLFTILLVDEDVGGLQIQRDGKWYNVQVTPNTLLINLGDTMEVLCNGIFRSPVHRVVTNAERERISLAMFYSVNDEKDIGPAAGLLDENRPARYRKVSVGEFRAGIIGKFSRRERYIDSLKI
# Experiments:
# [1] = test system: benzobicyclon-susceptible cultivar "Yamadawara"; experiment: Resistance to BBC of rice expressing OsHSL1 or its F140H mutant; format: in vivo; conditions: T1 seeds, MS medium containing 0.25 μM BBC, 30° C., bright place, 8 days
# Description: Next, the efficacy of the F140H mutation was confirmed using rice. Specifically, first, an mHSL1 gene obtained by modifying phenylalanine at position 140 in a rice HSL1 cDNA gene to histidine was prepared. Subsequently, the mutated gene or an HSL1 gene in which the mutation was not introduced was linked to downstream of the 35S promoter and was cloned together with a hygromycin-resistance gene expression cassette in the binary vector. Then, these vectors were each introduced into a benzobicyclon-susceptible cultivar “Yamadawara” by an agrobacterium method and recombinant rice was grown.
# The recombinant rice (T1) seeds thus produced and the seeds of the original cultivar “Yamadawara” were tested and seeded on an MS medium containing 0.25 μM BBC in a sterile manner and grown at 30° C. in a bright place for 8 days.
# [2] = 4-HPPD inhibitor decomposition activity by HPLC, substrate sulcotrione; format: biochemical; conditions: cell-free synthesized protein; FeCl2, ascorbic acid, 2-oxoglutarate; 30° C. for 3 hours; HPLC
# Text: (§1) Then, the decomposition reaction of a 4-HPPD inhibitor was examined in the presence of divalent iron ions, 2-oxoglutarate, and molecular oxygen in a test tube by a method described later using the HIS1 protein prepared by this cell-free protein synthesis system.
# (§2) Here, in commercially-available wheat germ extracts, dithiothreitol (DTT) is used as a reducing agent and a protein synthesizing reaction liquid also contains DTT. It was confirmed in advance by liquid chromatography that under the coexistence of divalent iron ions and ascorbic acid, which is a stabilizer for the divalent iron ions, DTT generated radical compounds and secondarily affected the enzyme reaction of HIS1 proteins. For this reason, in the present Example, an unreported protein synthesizing reaction system using Tris (2-carboxyethyl) phosphine (TCEP) as a reducing agent instead of DTT was newly constructed, with which the synthesis of HIS1 proteins and the like was conducted to examine the 4-HPPD inhibitor decomposition activity of these. The decomposition activity was analyzed on the reaction liquid of the protein and the 4-HPPD inhibitor using a high-performance liquid chromatography (mobile phase; 0.5% acetic acid water:acetonitrile=65:35, flow rate; 1 mL/min, feeding; isocratic, column; CAPCELL PAK ADME S5). […]
# (§3) Cell-free protein synthesis was conducted without adding [^14C]-Leucine Leucine under the same conditions as those in the estimation of the synthesized amount to estimate the protein concentration of this translation reaction liquid from the above-described estimation. […] The amounts of the solution before and after the buffer exchange were measured and the estimated protein concentration was corrected. […]
# (§4) Note that the 5-point scale of the decomposition activity in each of FIGS. 12 to 17 is based on a relative value of the degree of decrease in a substrate-derived peak area detected by HPLC where the degree of decrease in the HIS1 protein was designated by 5. […]
# [3] = 4-HPPD inhibitor decomposition activity by HPLC, substrate tefuryltrione; format: biochemical; conditions: cell-free synthesized protein; FeCl2, ascorbic acid, 2-oxoglutarate; 30° C. for 3 hours; HPLC
# Text: as §1, §2, §3, §4
# [4] = 4-HPPD inhibitor decomposition activity by HPLC, substrate BBC-OH; format: biochemical; conditions: cell-free synthesized protein; FeCl2, ascorbic acid, 2-oxoglutarate; 30° C. for 3 hours; HPLC
# Text: as §1
# Here, in commercially-available wheat germ extracts, dithiothreitol (DTT) is used as a reducing agent and a protein synthesizing reaction liquid also contains DTT. It was confirmed in advance by liquid chromatography that under the coexistence of divalent iron ions and ascorbic acid, which is a stabilizer for the divalent iron ions, DTT generated radical compounds and secondarily affected the enzyme reaction of HIS1 proteins. For this reason, in the present Example, an unreported protein synthesizing reaction system using Tris (2-carboxyethyl) phosphine (TCEP) as a reducing agent instead of DTT was newly constructed, with which the synthesis of HIS1 proteins and the like was conducted to examine the 4-HPPD inhibitor decomposition activity of these. The decomposition activity was analyzed on the reaction liquid of the protein and the 4-HPPD inhibitor using a high-performance liquid chromatography (mobile phase; 0.5% acetic acid water:acetonitrile=65:35, flow rate; 1 mL/min, feeding; isocratic, column; CAPCELL PAK ADME S5).
# Then, the amounts of the synthesized proteins obtained in Examples 1 to 4 as described above were estimated as described below, followed by the analysis on the 4-HPPD inhibitor decomposition activities.
# Cell-free protein synthesis was conducted without adding [^14C]-Leucine Leucine under the same conditions as those in the estimation of the synthesized amount to estimate the protein concentration of this translation reaction liquid from the above-described estimation. Then, 100 μl of the translation reaction liquid was subjected to buffer exchange to a basic translation buffer (30 mM HEPES-KOH (pH=7.8), 100 mM KOAc) by using the illustra MicroSpin G-25 column (manufactured by GE Healthcare). The amounts of the solution before and after the buffer exchange were measured and the estimated protein concentration was corrected.
# An enzyme reaction liquid was prepared by mixing 250 mM of HEPES-KOH (pH 7.0) with a mixture liquid, which contained 0.25 mM of FeCl2, 1.5 mM of ascorbic acid, 1.5 mM of 2-oxoglutarate, and 0.75 mM of a substrate, and a translation reaction liquid, which contained a synthesized enzyme protein, in a proportion of 40% and 60%, respectively. After incubation at 30° C. for 3 hours, 100% methanol in the same amount as the enzyme reaction liquid was added and sufficiently mixed, followed by being left to stand for 5 minutes on ice. This was subjected to centrifuge separation (20, 400 g, 20 minutes, 4° C.) and the supernatant was passed through Cosmonice Filter W (0.45 μm) (manufactured by Nacalai Tesque, Inc.) to obtain a sample for high-performance liquid chromatography. The analysis on the substrate and the product before and after the enzyme reaction was conducted by loading a column_Pro C18 (150×4.6 mm I.D.) (manufactured by YMC Co., Ltd.) on a high-performance liquid chromatography device_ELITE LaChrom L-2000 series (manufactured by Hitachi, Ltd.). Elution was conducted at a flow speed of 1 mL/min and a column temperature of 40° C. under solvent conditions of acetonitrile:water (1% acetic acid)=55:45 or 50:50 (BBC-OH), acetonitrile:water (1% acetic acid)=45:55 (Sulcotrione), acetonitrile:water (1% acetic acid)=45:55 (Mesotrione), acetonitrile:water (1% acetic acid)=55:45 or 50:50 (tefryltrone), and acetonitrile:water (1% acetic acid)=55:45 or 50:50 (Tembotrione), respectively, and the compound was detected at an ultraviolet wavelength of 286 nm.
# as §4
# [5] = 4-HPPD inhibitor decomposition activity by HPLC, substrate mesotrione; format: biochemical; conditions: cell-free synthesized protein, not shown in the figures
# Description: (§5) Then, the amounts of the synthesized proteins obtained in Examples 1 to 4 as described above were estimated as described below, followed by the analysis on the 4-HPPD inhibitor decomposition activities. Cell-free protein synthesis was conducted without adding [^14C]-Leucine Leucine under the same conditions as those in the estimation of the synthesized amount to estimate the protein concentration of this translation reaction liquid from the above-described estimation. Then, 100 μl of the translation reaction liquid was subjected to buffer exchange to a basic translation buffer (30 mM HEPES-KOH (pH=7.8), 100 mM KOAc) by using the illustra MicroSpin G-25 column (manufactured by GE Healthcare). The amounts of the solution before and after the buffer exchange were measured and the estimated protein concentration was corrected. […] Elution was conducted at a flow speed of 1 mL/min and a column temperature of 40° C. under solvent conditions of acetonitrile:water (1% acetic acid)=55:45 or 50:50 (BBC-OH), acetonitrile:water (1% acetic acid)=45:55 (Sulcotrione), acetonitrile:water (1% acetic acid)=45:55 (Mesotrione), acetonitrile:water (1% acetic acid)=55:45 or 50:50 (tefryltrone), and acetonitrile:water (1% acetic acid)=55:45 or 50:50 (Tembotrione), respectively, and the compound was detected at an ultraviolet wavelength of 286 nm.
# [6] = 4-HPPD inhibitor decomposition activity by HPLC, substrate tembotrione; format: biochemical; conditions: cell-free synthesized protein, not shown in the figures
# Description: as §5
molecule,measurement,setting,value
B1,BBC resistance (growth condition),[1],whitened
same,sulcotrione decomposition activity,[2],hardly observed; also recorded: only very weak decomposition activity
same,tefuryltrione decomposition activity,[3],"lower than that of the HIS1 protein; also recorded: had the decomposition activity, which was less effective than that of the HIS1 protein"
same,BBC-OH decomposition activity,[4],hardly observed; also recorded: only very weak decomposition activity
same,mesotrione decomposition activity,[5],only very weak decomposition activity
same,tembotrione decomposition activity,[6],only very weak decomposition activity
